Laboratory results as given in US20250262210A1 (TRUSTEES OF COLUMBIA UNIVERSITY IN THE CITY OF NEW YORK, published 2025).

Key:
Test in all cases: IP/MS, LZTR1 R810W-FLAG, U87
MED24 = molecular target: T1, MED24 (human, UniProt O75448 1-989, limits assumed)
T1 sequence (looked up): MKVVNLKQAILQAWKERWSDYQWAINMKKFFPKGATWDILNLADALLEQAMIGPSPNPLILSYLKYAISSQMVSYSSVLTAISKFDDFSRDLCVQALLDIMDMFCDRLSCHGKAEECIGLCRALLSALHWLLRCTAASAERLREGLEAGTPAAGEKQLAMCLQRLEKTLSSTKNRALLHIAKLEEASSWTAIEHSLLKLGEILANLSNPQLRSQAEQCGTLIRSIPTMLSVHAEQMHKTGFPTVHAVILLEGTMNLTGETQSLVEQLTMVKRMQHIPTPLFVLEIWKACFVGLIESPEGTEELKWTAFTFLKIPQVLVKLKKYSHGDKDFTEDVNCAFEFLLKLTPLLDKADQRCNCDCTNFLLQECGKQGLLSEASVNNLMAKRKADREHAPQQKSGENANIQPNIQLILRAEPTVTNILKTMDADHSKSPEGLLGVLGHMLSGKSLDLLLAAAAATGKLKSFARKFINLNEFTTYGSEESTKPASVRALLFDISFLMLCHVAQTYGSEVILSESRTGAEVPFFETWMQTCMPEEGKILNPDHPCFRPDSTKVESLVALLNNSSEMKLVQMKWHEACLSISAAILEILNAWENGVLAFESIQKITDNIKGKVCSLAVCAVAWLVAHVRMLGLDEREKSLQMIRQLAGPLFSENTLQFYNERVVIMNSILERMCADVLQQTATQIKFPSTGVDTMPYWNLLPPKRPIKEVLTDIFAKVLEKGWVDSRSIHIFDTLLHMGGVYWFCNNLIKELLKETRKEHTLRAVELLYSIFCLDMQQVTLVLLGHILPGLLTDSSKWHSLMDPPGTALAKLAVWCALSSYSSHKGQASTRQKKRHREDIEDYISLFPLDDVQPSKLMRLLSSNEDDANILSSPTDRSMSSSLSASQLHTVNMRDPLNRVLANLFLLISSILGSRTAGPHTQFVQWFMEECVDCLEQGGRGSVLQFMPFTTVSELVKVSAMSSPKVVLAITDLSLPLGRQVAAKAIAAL
In short: (§1)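 Extracted peptides in 3% acetonitrile/0.1% formic acid ran on a 50 cm C18 column into an Orbitrap Fusion, with MaxQuant identification and spectral counting.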

SREBF2 = molecular target: T2, SREBF2 (human, UniProt Q12772 1-1141, limits assumed)
T2 sequence (looked up): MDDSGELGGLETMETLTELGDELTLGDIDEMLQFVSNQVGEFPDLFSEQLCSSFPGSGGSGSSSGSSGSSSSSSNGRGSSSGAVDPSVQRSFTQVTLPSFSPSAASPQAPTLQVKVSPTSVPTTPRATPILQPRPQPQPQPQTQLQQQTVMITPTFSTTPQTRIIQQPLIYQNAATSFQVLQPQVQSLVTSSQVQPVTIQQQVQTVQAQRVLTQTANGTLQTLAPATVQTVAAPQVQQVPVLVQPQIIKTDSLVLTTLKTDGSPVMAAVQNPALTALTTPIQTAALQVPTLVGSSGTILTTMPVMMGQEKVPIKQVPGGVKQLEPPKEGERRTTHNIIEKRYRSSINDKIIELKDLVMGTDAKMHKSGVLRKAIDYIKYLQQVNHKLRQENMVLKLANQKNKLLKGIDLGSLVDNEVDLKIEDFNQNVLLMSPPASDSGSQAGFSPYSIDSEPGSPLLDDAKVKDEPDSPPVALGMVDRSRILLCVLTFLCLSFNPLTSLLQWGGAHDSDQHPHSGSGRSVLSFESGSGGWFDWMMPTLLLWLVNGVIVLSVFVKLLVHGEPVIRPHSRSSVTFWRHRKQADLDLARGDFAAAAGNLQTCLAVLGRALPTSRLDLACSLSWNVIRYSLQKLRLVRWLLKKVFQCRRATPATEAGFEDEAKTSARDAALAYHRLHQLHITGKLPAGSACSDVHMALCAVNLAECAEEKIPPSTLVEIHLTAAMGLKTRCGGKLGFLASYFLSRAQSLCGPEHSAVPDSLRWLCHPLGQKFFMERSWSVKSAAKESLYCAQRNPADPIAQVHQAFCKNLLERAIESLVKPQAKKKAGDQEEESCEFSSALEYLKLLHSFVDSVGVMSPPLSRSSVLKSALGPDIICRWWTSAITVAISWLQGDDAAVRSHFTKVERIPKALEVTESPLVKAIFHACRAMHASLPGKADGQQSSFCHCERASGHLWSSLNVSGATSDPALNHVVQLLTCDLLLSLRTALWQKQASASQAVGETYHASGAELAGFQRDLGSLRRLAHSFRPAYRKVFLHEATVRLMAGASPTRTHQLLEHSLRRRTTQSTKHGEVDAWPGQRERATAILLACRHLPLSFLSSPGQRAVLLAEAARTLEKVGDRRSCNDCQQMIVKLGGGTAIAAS
In short: as §1

INTS1 = INTS1 (human, UniProt Q8N201 1-2190)
In short: as §1

ARFGEF1 = ARFGEF1 (human, UniProt Q9Y6D6 1-1849)
In short: as §1

CA9 = CA9 (human, UniProt Q16790 38-459)
In short: as §1

Measured: binding result

Chain of ARFGEF1 (Q9Y6D6 whole entry): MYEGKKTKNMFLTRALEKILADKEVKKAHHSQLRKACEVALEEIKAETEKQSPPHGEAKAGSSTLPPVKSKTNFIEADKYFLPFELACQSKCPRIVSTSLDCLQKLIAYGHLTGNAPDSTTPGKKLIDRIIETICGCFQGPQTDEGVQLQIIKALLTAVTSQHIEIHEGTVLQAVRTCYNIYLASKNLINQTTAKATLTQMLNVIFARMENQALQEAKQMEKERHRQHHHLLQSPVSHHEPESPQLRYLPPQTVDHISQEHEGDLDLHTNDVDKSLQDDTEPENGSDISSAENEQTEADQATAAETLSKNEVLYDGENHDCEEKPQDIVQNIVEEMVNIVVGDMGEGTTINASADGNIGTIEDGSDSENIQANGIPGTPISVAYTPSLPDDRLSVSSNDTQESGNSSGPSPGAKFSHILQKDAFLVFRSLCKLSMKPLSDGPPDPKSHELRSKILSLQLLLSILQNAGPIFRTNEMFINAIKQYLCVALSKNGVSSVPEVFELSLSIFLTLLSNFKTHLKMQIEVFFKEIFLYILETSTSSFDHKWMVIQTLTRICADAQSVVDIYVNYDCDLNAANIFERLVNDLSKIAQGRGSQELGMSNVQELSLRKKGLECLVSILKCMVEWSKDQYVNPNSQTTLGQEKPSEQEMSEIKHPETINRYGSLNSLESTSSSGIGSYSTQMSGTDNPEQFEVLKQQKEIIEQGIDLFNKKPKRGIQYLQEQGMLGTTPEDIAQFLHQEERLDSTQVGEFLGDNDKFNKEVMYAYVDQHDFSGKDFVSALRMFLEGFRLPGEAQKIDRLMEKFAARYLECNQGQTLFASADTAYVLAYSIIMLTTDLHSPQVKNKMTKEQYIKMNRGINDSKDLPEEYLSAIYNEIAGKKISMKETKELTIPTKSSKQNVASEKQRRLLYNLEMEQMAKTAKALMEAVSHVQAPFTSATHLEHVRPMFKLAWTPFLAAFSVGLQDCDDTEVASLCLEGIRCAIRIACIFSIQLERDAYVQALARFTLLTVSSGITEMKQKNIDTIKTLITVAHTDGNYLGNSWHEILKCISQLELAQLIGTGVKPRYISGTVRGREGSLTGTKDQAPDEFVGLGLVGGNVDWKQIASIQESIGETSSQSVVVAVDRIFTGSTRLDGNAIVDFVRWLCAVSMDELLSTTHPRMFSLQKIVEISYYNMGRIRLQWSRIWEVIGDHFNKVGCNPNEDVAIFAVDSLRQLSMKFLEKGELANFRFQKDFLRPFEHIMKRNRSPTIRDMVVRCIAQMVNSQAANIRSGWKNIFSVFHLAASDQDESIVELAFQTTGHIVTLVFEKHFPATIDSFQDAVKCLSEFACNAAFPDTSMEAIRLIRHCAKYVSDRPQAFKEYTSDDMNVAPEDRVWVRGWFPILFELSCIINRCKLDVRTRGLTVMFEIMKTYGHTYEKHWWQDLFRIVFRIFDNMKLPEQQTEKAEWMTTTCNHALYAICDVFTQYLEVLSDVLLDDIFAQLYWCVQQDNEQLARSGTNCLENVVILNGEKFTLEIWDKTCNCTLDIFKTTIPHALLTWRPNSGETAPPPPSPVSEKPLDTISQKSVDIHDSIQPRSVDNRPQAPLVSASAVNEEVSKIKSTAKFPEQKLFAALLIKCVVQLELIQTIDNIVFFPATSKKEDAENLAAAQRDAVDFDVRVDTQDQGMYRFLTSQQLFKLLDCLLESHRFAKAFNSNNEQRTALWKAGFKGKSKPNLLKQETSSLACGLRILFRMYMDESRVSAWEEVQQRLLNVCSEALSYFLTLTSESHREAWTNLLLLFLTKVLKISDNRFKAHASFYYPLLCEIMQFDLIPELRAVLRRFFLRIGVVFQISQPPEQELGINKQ
Chain of INTS1 (Q8N201 whole entry): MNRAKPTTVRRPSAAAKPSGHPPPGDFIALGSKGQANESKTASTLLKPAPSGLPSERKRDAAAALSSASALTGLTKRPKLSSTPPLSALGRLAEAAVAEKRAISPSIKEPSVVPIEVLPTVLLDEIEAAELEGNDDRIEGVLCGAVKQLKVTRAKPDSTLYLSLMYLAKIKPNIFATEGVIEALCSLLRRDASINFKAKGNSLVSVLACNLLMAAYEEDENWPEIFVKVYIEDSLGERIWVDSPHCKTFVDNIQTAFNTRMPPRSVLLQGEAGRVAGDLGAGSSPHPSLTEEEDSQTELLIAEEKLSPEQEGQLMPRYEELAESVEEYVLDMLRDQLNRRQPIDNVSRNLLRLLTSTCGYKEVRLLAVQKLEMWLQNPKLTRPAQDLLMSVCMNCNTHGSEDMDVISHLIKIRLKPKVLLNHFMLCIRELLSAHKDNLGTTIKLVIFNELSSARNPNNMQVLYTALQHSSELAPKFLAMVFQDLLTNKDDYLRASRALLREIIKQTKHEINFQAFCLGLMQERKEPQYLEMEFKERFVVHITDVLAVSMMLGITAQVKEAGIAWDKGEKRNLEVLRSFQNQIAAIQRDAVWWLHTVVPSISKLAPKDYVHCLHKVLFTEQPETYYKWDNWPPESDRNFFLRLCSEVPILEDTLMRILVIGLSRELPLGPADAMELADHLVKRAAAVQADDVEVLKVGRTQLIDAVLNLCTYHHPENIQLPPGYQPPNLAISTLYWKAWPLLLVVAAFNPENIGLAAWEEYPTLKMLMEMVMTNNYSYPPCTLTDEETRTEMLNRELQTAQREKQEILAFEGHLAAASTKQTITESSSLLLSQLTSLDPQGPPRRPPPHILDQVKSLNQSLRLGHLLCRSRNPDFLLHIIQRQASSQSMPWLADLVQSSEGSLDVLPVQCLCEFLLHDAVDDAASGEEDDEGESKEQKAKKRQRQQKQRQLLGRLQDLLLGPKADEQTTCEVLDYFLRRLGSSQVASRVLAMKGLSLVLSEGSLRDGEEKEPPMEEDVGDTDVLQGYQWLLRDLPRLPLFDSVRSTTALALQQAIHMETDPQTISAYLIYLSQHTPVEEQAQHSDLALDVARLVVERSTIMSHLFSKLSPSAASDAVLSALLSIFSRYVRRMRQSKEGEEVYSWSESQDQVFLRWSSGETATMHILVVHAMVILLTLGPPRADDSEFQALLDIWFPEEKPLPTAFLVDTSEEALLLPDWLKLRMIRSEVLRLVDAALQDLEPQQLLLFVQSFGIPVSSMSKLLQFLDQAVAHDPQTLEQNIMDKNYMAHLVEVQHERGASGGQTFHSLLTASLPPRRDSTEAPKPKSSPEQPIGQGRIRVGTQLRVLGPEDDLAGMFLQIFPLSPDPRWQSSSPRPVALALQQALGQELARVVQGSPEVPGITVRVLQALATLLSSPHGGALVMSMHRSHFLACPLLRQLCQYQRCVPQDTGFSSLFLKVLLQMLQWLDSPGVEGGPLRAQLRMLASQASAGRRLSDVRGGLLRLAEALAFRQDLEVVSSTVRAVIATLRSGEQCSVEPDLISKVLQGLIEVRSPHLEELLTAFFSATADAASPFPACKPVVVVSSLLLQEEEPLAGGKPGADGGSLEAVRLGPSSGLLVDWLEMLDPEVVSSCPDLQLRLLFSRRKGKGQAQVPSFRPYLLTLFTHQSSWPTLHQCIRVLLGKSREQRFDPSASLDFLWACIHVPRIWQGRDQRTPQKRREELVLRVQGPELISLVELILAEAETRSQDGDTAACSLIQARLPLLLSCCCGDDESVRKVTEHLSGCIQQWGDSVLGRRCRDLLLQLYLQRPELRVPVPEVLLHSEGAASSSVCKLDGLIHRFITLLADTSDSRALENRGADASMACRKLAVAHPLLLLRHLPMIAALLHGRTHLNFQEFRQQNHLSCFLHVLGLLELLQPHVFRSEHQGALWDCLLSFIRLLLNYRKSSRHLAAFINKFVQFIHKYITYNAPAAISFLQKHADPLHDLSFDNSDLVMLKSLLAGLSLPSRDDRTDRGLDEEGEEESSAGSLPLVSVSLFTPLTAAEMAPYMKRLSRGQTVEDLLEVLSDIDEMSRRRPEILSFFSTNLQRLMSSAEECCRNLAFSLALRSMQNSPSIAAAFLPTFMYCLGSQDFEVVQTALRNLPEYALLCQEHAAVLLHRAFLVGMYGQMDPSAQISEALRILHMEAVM

B1: LZTR1 R810W-FLAG (other, human, UniProt Q8N653 1-840, looked up)
chain: MAGPGSTGGQIGAAALAGGARSKVAPSVDFDHSCSDSVEYLTLNFGPFETVHRWRRLPPCDEFVGARRSKHTVVAYKDAIYVFGGDNGKTMLNDLLRFDVKDCSWCRAFTTGTPPAPRYHHSAVVYGSSMFVFGGYTGDIYSNSNLKNKNDLFEYKFATGQWTEWKIEGRLPVARSAHGATVYSDKLWIFAGYDGNARLNDMWTIGLQDRELTCWEEVAQSGEIPPSCCNFPVAVCRDKMFVFSGQSGAKITNNLFQFEFKDKTWTRIPTEHLLRGSPPPPQRRYGHTMVAFDRHLYVFGGAADNTLPNELHCYDVDFQTWEVVQPSSDSEVGGAEVPERACASEEVPTLTYEERVGFKKSRDVFGLDFGTTSAKQPTQPASELPSGRLFHAAAVISDAMYIFGGTVDNNIRSGEMYRFQFSCYPKCTLHEDYGRLWESRQFCDVEFVLGEKEECVQGHVAIVTARSRWLRRKITQARERLAQKLEQEAAPVPREAPGVAAGGARPPLLHVAIREAEARPFEVLMQFLYTDKIKYPRKGHVEDVLLIMDVYKLALSFQLCRLEQLCRQYIEASVDLQNVLVVCESAARLQLSQLKEHCLNFVVKESHFNQVIMMKEFERLSSPLIVEIVRRKQQPPPRTPLDQPVDIGTSLIQDMKAYLEGAGAEFCDITLLLDGHPRPAHKAILAARSSYFEAMFRSFMPEDGQVNISIGEMVPSRQAFESMLRYIYYGEVNMPPEDSLYLFAAPYYYGFYNNRLQAYCKQNLEMNVTVQNVLQILEAADKTQALDMKRHCLHIIVHQFTKVSKLPTLWSLSQQLLLDIIDSLASHISDKQCAELGADI
notes: Stably expressed in U87 cells by lentivirus; also called LZTR1-FLAG-R810W; LZTR1 RW; not shown: FLAG tag
binds: all assays above
